{"source": "patent US20030198957", "key": {"[1]": {"tested_on": "JNK"}, "[2]": {"tested_on": "ERK"}, "[3]": {"tested_on": "P38 MAP kinase"}}, "data": [{"substance": "human NOV8 (EDSP, Endothelial Dual Specificity Phosphatase domain-containing protein)", "values": [{"measurement": "in vitro phosphorylation (dephosphorylation) assay", "setting": "[1]", "value": "can dephosphorylate ERK and JNK"}, {"measurement": "in vitro phosphorylation (dephosphorylation) assay", "setting": "[2]", "value": "can dephosphorylate ERK and JNK"}, {"measurement": "in vitro phosphorylation (dephosphorylation) assay", "setting": "[3]", "value": "has little activity on P38 MAP kinase"}]}]}
